# Assay results taken from the RNAGym collection of RNA variant scans (doi:10.7554/elife.80360).
# B1: HDV Ribozyme (parent)
# chain: GGCCGGCAUGGUCCCAGCCUCCUCGCUGGCGCCGGCUGGGCAACAUUCCGAGGGGACCGUCCCCUCGGUAAUGGCGAAUGGGACCCA
# Variants of: B1
# Assay: self-cleavage, relative activity (ratio to wild type); higher = more cleavage; co-transcriptional
row,Variant,self-cleavage
1,G6U U65C,0.289
2,C30G C86A,0.241
3,C26G G31C,0.284
4,G74A C86G,0.375
5,C7U G11A,0.423
6,G74A C85U,0.462
7,G39U U72G,0.284
8,C24U C75U,0.197
9,C18G C86U,0.0875
10,G11U A56C,0.332
11,G6U C19G,0.0692
12,G2U C61U,0.103
13,C36A U72G,0.0978
14,C15A G73U,0.095
15,C18U U69A,0.397
16,G59C C85U,1.14
17,U27C G54A,0.598
18,G50A G74C,0.242
19,G29U A77G,0.178
20,C33U U69A,0.898
21,C7G C48G,0
22,A16G C84A,0.7
23,G59A U79G,0.906
24,G80U C84A,0.652

row,Variant,self-cleavage
1,G5C C64A,0.178
2,U72C,0.589
3,C4U A83U,0.115
4,C22A A77G,0.38
5,C15U G17U,0.415
6,G11U C32G,0.0767
7,U37G G73U,0.0923
8,C4U A87G,0.599
9,G25C C26A,0.196
10,A77U C86A,0.831
11,C19G U69A,0
12,G34A A71U,0.185
13,C30A U60G,0.502
14,C22A A56G,0.415
15,G31U G82C,0.136
16,A83G A87G,0.733
17,G34A G38C,0.166
18,G25C G82U,0.0755
19,A42C U47C,0.0791
20,C26G C62U,1.09
21,U37A G50A,0.0361
22,G10C G50C,0.923
23,C49A A70G,0.689
24,G55C A56G,1.15

row,Variant,self-cleavage
1,C48U C49G,0.982
2,G31C G34U,0.191
3,G5A G59U,0.222
4,C26U G50U,1.12
5,C26U G50C,1
6,G52C C86U,1.2
7,C33U C66A,0.774
8,C26G U72G,0.755
9,G55C U72G,0.449
10,G38C U72C,0.341
11,G17A C44U,0.231
12,G25U U37A,0.0831
13,C18U G76C,0.978
14,A56C A83G,1.01
15,C33G U60A,0.19
16,G11U C30G,0.0767
17,C22A C63U,0.157
18,C22A C63G,0.369
19,C7A C58A,0.772
20,C41A C64G,0.884
21,C26A G50A,0.881
22,U20A G54A,0.116
23,G1U G2C,0.519
24,G35U A78C,0.133

row,Variant,self-cleavage
1,G2U A42C,0.0297
2,A78C C86A,0.192
3,A78C C86G,0.14
4,G81C C84A,0.26
5,C33A G53C,0.332
6,C33U C57G,1.04
7,U9A G55U,0.895
8,G38U G50U,0.352
9,C33G A70C,0.145
10,G38U U47G,0.166
11,A56C G67A,1.05
12,C21G G82C,0.0437
13,C62G G73A,0.534
14,G6C G82C,0.0405
15,G6C G82A,0
16,C33G C41U,0.119
17,C32A A42G,0.0519
18,A45G G80C,0.415
19,C14G C33A,0.151
20,C18U A56C,0.628
21,U9A C62U,1.06
22,C3A A51U,0.599
23,G31C G82U,0.128
24,U12C G52C,0.287

row,Variant,self-cleavage
1,G6C A87C,0.312
2,C26A U27G,0.733
3,G6C A51C,0.225
4,G29U C48U,0.0959
5,C33U A70G,0.758
6,C7U A16C,0.196
7,C13G G80U,0.0475
8,G52U G81A,0.356
9,G31U A42G,0.0923
10,G35A C86U,0.712
11,G17A G52C,0.923
12,G10A G67U,0.767
13,U47G C57G,1.22
14,A42C A71G,0.361
15,U47G C66A,0.969
16,A56G C61A,0.849
17,C4A A51G,0.502
18,A8U C19A,0
19,G73A C84A,0.564
20,C49A A87C,0.95
21,G67A A77U,0.339
22,U23C U79G,0.883
23,C4U U27A,0.246
24,C30A G50A,0.641

row,Variant,self-cleavage
1,G55A C64A,0.95
2,G52A U79A,0.95
3,G10U C48A,0.698
4,C4U G17C,0.147
5,A43G C63G,0.604
6,G35A G39C,0.113
7,G5U U72C,0.119
8,C15G A56G,0.712
9,A16G G40C,0.135
10,G68C A87U,0.799
11,A56C C58U,1.07
12,A8C A87U,0.847
13,C24A G28U,0.0386
14,G11U C41A,0.201
15,C3G G11A,0.144
16,G31A G38A,0.14
17,C4G G50U,0.527
18,U72C C85U,0.511
19,C21U G68A,0.252
20,G31U C75A,0.0665
21,G11A G67A,0.0841
22,G68U A83C,0.538
23,C4U C30A,0.133
24,C4A G10C,0.141

row,Variant,self-cleavage
1,G59U C63A,0.935
2,C21A G74A,0.0536
3,C62A C75G,0.0519
4,G35U G76U,0.595
5,A51U G76U,1.11
6,G1C C30A,0.104
7,C41G A70U,0.746
8,C19U C66A,0.182
9,C22G G59C,0.151
10,G38A A70C,0.177
11,G10A C13A,0.0941
12,C26G C61U,1.06
13,A8G U37A,0.147
14,A8G C36U,0.727
15,C33A C48G,0.125
16,U12C A83C,0.166
17,C30U C36U,0.244
18,A8G U20G,0.151
19,C66U G80U,0.295
20,C58G U60C,1.2
21,U20G A83G,0.16
22,U60A,1
23,A43C C57U,0.491
